Read-outs that look alike come from different tables or passages of the source. Blank lines part the entries; values can stand above or below the molecule they belong to.
Experiments:
BMPR-IB [1] = molecular target: T1, BMPR-IB (Homo sapiens, UniProt O00238); conditions: in vitro; cited from earlier work
BMPR-IB [2] = molecular target: T1, BMPR-IB; experiment: in vitro binding affinity for BMPR-IB
Source text: This can be achieved by specific substitutions of one or more amino acid residues relating to a BMPR-IB and/or BMPR-IA binding site in the amino acid sequence of a GDF-5 related protein.
The binding affinity of GDF-5 related proteins having specific substitutions is compared to the binding affinity of human wild-type GDF-5 related protein, in particular human wild-type GDF-5.

BMPR-IA = BMPR-IA (Homo sapiens, UniProt P36894); conditions: in vitro; cited from earlier work
Chain of BMPR-IA (P36894 24-532): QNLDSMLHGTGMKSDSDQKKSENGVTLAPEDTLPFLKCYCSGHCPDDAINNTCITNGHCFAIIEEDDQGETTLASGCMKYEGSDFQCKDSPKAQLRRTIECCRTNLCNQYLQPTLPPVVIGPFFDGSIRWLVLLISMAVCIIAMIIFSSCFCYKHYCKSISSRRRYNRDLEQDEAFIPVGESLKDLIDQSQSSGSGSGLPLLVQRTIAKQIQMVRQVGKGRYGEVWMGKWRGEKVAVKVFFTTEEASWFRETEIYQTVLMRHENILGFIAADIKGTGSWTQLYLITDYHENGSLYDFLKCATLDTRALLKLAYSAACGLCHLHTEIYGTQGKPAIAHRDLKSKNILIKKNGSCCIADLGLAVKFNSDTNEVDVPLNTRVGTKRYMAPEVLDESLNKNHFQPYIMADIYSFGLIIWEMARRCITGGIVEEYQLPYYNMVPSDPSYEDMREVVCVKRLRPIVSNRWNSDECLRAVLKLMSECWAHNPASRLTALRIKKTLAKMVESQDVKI

OA patients = conditions: cited from earlier work
[3] = test system: primary human meniscus cells; experiment: NGF stimulated PGE2 release in primary human meniscus cells; assay type: cell-based; conditions: 10 ng/ml rhNGF, 2 days; 0.1 μM Dexamethasone, 0.1 μM Triamcinolone, 375 ng/ml anti-betaNGF antibody, 300 ng/ml R399E
Protocol: Primary meniscus cells from total knee replacement surgeries were freshly prepared one day post-surgery within the frame of an ethical permission. First, skin and muscle were removed to isolate the menisci. The menisci were transferred into a 10 cm dish filled with HAM's F12+1% P/S+1% Amphotericin B. The tissue was cut into small pieces of approximately 3×3 mm and transferred into a sterile beaker for digestion. Digestion was performed for 16 h in 50 ml of a 0.4% Collagenase in HAM's F12+1% P/S+1% Amphotericin solution at 37° C., 7.5% CO2 under constant stirring. After 16 h the solution was pipetted through a 100 μm filter followed by a 40 μm filter and then centrifuged for 5 min at 1400 g. The remaining pellet, containing the cells was resuspended in 20 ml of HAM's F12+1% P/S+1% Amphotericin+10% FCS. Cell number was counted, and cell viability was determined. Finally, 10,000 cells per well were seeded in a 96 well plate. Cells were cultivated up to 1 week to reach confluency. In between medium was exchanged once. […] The effect of the individual compounds was compared to cells which were stimulated with rhNGF only. After 2 days incubation, the supernatant was removed for determination of Prostaglandin E2 (PGE2) in the medium.

rabbit ACLT+pMx OA model = experiment: rabbit ACLT+pMx OA model, static incapacitance test, comparison with Triamcinolone and anti-NGF-antibody (KK-rabbit-17-01); assay type: in vivo, New Zealand white (NZW) rabbits
Protocol: (§1) Baseline incapacitance measurement was made 2 times prior to surgery. OA was induced by ACLT+pMx knee surgery in rabbits in the right knee joint in week 0. […] Weight bearing was measured using a contact-free static incapacitance measurement whereby plates measure pressure put on the operated and injected right hindlimb in comparison to the left unoperated hindlimb. Data are percent weight put on the right over the left hindlimb, whereby 50% corresponds to equal loading of both legs and 0% to load on the unoperated left limb only. Effect size was compared to clinically effective Triamcinolone treatment. 1.41 mg Triamcinolone correspond to human equivalent dose calculation based on metabolic body weight, synovial fluid volume and cartilage surface area.
as §1, with “Effect size was compared to clinically effective Triamcinolone treatment. 1.41 mg Triamcinolone correspond to human equivalent dose calculation based on metabolic body weight, synovial fluid volume and cartilage surface area.” left out

T1 sequence (O00238 14-502): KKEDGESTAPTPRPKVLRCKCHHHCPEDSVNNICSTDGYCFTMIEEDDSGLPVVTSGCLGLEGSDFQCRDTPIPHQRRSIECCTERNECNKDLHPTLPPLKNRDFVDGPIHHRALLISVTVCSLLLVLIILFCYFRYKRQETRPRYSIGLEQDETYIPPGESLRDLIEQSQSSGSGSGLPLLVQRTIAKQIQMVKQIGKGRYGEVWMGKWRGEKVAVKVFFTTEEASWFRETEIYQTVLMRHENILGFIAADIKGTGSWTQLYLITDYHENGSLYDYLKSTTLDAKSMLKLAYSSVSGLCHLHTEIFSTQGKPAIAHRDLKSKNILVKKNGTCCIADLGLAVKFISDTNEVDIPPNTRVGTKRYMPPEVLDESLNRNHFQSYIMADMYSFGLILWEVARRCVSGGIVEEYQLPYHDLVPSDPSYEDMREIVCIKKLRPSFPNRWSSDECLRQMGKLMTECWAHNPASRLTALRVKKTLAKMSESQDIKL

fold higher affinity for BMPR-IB as compared with BMPR-IA (BMPR-IB [2]): 40- to 120 fold
Molecule: Wild-type GDF-5: morphogen, also known as bone morphogenetic protein-14 (BMP-14) or cartilage-derived morphogenetic protein-1 (CDMP-1)
Kd (BMPR-IB [1]): 8 to 27 pM
Kd (BMPR-IA): 1000 to 1100 pM

Molecule: tanezumab: anti-NGF (nerve growth factor) antibody (tanezumab, Pfizer) under clinical development for OA
incidence of RPOA overall (OA patients; tanezumab 2.5 mg arm): 3.2%
incidence of RPOA overall (OA patients; tanezumab 5 mg arm): 6.3%

Molecule: C[C@]12C=CC(=O)C=C1CC[C@H]1[C@@H]3C[C@@H](O)[C@](O)(C(=O)CO)[C@@]3(C)C[C@H](O)[C@@]12F [Triamcinolone]
rhNGF induced PGE2 in the medium [3]: significantly inhibited
symptomatic effect compared to placebo (incapacitance) (rabbit ACLT+pMx OA model; 1.41 mg IA in week 1, week 2 post surgery): −11.6%
effect on pain (incapacitance) (rabbit ACLT+pMx OA model; 1.41 mg IA once in week 1, 6 hours after injection): significant effect on pain
